Legend:
[1] = molecular target: PLC-γ1 pTyr783 peptide peptide encompassing pTyr783 (Homo sapiens) (UniProt P19174); conditions: cited from earlier work
[2] = molecular target: T1, wild-type PLC-γ1, rat phospholipase C-γ1 residues 21–1215 (rat, UniProt P10686 21-1215); assay: cell-based or functional assay
T1 sequence (looked up): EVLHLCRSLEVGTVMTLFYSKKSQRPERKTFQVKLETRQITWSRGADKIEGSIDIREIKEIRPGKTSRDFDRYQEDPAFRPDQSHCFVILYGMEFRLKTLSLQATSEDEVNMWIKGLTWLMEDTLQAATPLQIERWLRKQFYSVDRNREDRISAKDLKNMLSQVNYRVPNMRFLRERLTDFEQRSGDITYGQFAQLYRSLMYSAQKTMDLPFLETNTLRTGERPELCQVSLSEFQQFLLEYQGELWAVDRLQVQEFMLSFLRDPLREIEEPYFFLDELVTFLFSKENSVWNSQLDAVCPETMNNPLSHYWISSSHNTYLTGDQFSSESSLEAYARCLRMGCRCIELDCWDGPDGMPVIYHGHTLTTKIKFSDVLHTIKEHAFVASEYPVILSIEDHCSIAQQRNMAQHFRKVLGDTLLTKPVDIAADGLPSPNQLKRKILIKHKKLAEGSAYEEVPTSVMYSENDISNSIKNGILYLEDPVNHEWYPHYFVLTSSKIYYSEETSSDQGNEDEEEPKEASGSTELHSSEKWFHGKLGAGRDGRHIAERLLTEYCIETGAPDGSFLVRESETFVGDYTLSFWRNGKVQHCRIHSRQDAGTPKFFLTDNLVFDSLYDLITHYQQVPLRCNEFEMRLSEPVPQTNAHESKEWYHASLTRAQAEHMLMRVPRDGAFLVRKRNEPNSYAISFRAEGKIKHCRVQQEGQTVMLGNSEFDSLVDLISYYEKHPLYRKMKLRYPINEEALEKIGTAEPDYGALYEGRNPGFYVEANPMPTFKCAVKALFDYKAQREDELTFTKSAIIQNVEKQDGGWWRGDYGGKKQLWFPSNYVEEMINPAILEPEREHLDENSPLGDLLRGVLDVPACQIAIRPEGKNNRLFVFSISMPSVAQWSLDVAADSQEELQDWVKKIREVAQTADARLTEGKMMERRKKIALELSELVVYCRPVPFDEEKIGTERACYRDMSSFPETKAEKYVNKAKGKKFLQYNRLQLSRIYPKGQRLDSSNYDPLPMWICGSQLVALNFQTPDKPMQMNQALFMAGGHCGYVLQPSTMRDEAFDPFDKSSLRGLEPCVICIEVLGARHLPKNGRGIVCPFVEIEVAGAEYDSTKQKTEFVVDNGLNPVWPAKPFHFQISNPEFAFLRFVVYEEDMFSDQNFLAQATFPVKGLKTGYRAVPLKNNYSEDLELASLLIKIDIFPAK

[3] = molecular target: T2, PLC-γ1 (D1165H), rat phospholipase C-γ1 residues 21–1215 (rat, UniProt P10686 21-1215, D1165H); assay: cell-based or functional assay
T2 sequence (looked up): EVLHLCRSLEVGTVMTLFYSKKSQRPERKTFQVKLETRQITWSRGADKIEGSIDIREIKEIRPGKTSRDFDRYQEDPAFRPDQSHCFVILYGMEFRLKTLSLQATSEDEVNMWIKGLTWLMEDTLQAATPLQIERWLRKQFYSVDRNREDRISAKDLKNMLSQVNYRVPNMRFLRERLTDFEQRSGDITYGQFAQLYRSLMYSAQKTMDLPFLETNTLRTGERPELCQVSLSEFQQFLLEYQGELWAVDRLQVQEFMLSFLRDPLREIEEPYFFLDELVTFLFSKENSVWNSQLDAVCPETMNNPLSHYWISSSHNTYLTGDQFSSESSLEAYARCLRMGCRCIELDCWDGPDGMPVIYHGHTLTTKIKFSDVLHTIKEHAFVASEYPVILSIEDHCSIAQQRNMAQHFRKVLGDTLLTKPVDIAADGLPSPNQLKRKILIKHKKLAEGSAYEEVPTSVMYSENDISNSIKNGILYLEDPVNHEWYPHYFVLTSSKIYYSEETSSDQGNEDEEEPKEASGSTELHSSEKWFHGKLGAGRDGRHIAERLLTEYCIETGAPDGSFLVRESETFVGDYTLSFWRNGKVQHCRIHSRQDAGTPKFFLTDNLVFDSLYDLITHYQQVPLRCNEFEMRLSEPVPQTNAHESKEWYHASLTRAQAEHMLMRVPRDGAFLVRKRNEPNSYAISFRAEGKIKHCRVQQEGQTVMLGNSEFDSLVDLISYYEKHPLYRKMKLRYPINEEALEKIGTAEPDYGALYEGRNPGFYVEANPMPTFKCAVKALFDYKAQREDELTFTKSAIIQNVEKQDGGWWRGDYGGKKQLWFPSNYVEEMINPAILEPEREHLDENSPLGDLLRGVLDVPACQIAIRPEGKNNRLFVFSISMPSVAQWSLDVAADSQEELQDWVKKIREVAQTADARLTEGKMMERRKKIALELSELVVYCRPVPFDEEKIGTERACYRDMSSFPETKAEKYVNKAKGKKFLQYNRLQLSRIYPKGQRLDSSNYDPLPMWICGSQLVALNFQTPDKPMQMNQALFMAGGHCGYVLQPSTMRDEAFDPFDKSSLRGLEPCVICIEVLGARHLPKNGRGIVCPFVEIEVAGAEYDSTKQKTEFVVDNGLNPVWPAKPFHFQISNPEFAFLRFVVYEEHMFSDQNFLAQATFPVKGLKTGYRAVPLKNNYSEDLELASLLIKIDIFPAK

[4] = molecular target: T3, PLC-γ1 (H335A), rat phospholipase C-γ1 residues 21–1215 (rat, UniProt P10686 21-1215, H335A); assay: SEC; PLC-γ1 variant mixed with phosphorylated kinase-inactive FGFR1K (two-fold molar excess of one partner), Superdex 200 GL 10 mm x 300 mm, 20 mM HEPES pH 7.5, 100 mM NaCl, 10 mM MgCl2, 2 mM DTT; fractions by SDS-PAGE and Coomassie; complex of PLC-γ1 (H335A) run again after 8 hr on ice; conditions: both partners purified
T3 construct: phospholipase C-γ1, rat, residues 21–1215, with H335A; source: High Five (Trichoplusia ni) cells, baculovirus, purified (HisTrap IMAC, TEV cleavage, SourceQ, Superdex 200); not shown: His6, N-terminal, cleaved
T3 sequence (looked up): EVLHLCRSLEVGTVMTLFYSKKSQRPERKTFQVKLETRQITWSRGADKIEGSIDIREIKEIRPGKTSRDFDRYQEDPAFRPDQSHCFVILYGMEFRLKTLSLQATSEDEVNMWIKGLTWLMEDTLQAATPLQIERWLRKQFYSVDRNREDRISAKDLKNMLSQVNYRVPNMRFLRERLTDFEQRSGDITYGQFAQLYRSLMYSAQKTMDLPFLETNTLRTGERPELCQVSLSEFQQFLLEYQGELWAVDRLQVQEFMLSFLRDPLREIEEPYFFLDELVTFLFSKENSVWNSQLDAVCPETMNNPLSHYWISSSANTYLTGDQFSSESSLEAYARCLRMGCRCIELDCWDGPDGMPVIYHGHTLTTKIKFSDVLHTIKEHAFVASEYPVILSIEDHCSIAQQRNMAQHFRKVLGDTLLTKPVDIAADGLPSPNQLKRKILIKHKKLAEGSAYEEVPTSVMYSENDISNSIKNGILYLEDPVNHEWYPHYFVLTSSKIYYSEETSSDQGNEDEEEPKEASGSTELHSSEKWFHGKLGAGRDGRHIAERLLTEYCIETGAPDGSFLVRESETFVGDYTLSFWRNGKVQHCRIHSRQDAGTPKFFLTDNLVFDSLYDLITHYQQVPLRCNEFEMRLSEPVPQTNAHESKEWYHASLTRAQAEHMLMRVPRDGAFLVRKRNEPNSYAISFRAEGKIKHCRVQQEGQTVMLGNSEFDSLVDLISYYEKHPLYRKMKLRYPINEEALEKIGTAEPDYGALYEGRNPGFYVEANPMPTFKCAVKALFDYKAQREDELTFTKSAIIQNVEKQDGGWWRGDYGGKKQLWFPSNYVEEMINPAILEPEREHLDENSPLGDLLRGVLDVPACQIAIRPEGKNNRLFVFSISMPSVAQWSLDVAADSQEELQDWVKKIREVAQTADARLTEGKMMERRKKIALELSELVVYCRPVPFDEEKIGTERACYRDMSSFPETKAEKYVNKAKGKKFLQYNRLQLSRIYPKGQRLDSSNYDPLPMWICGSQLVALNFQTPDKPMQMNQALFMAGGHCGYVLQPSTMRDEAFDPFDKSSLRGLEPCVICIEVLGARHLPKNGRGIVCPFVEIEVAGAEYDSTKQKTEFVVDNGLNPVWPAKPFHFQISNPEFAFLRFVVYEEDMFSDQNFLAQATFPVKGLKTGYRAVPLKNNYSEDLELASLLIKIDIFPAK

[5] = molecular target: T4, PLC-γ1 (H335A+D1165H), rat phospholipase C-γ1 residues 21–1215 (rat, UniProt P10686 21-1215, H335A | D1165H); assay: as above; conditions: both partners purified
T4 construct: phospholipase C-γ1, rat, residues 21–1215, with H335A and D1165H; PDB 6PBC is the cited structure of the parent; also called oncogenic mutant of PLC-γ1; source: High Five (Trichoplusia ni) cells, baculovirus, purified (HisTrap IMAC, TEV cleavage, SourceQ, Superdex 200); not shown: His6, N-terminal, cleaved
T4 sequence (looked up): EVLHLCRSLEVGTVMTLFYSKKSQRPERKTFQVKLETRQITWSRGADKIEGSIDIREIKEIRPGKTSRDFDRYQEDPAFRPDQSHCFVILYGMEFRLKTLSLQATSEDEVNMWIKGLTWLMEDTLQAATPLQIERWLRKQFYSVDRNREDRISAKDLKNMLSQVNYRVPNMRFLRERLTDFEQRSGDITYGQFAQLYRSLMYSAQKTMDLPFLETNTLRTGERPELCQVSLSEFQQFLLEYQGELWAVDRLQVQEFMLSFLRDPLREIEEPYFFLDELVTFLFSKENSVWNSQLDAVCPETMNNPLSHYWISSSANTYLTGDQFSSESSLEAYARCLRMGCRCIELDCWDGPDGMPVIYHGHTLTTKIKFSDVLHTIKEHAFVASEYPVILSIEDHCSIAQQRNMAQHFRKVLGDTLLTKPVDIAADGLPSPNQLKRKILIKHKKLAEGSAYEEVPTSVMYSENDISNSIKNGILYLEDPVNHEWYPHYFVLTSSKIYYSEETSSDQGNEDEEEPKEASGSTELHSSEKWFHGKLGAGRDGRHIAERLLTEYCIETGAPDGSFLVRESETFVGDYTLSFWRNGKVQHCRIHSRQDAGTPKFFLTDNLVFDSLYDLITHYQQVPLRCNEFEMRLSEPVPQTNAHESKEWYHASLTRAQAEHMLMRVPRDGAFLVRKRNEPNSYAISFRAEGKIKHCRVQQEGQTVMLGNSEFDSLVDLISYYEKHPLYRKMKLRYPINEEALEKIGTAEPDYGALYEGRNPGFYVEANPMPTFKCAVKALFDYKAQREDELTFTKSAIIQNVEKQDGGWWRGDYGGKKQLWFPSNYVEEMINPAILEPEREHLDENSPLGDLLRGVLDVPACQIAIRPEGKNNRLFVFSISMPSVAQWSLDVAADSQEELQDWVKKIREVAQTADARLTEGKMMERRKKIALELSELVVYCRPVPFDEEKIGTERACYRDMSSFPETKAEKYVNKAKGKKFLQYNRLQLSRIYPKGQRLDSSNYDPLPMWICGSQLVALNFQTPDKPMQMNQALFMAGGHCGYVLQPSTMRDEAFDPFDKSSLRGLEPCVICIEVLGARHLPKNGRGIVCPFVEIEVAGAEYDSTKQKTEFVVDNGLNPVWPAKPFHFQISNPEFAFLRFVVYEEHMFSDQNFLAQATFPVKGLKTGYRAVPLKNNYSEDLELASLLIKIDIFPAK

## PLC-γ1 cSH2 domain cSH2 (from UniProt P19174)
[1]
  Kd: 0.36 µM

B1: kinase-inactive kinase domain of human FGFR1 (residues 458–774) phosphorylated at Tyr766 (domain or fragment, UniProt P11362 458-774, looked up)
chain: AGVSEFELPEDPRWELPRDRLVLGKPLGEGCFGQVVLAEAIGLDKDKPNRVTKVAVKMLKSDATEKDLSDLISEMEMMKMIGKHKNIINLLGACTQDGPLYVIVEYASKGNLREYLQARRPPGLEFCFNPSHNPEEQLSSKDLVSCAYQVARGMEYLASKKCIHRDLAARNVLVTEDNVMKIADFGLARDIHHIDFFKKTTNGRLPVKWMAPEALFDRIYTHQSDVWSFGVLLWEIFTLGGSPYPGVPVEELFKLLKEGHRMDKPSNCTNELFMMMRDCWHAVPSQRPTFKQLVEDLDRIVALTSNQEYLDLSMPLD
modifications: phosphotyrosine at 766
notes: fibroblast growth factor receptor 1, human, kinase domain residues 458–774, six tyrosines changed to phenylalanine; Phosphorylation specifically at Tyr766 confirmed by LC-MS/MS; also called pFGFR1K; phosphorylated FGFR1K; source: High Five cells, baculovirus, purified (HisTrap IMAC, TEV cleavage, Superdex 200); phosphorylated in vitro with His6-tagged kinase-active FGFR1K (Y766F), separated by …
[2]
  specific lipase activity of PLC-γ1 (10 nM) on XY-69 in PE:PIP2 (80:20) liposomes, pre-incubated with a two-fold molar excess of pFGFR1K, against PLC-γ1 alone: ~3 fold
[3]
  basal lipase activity of PLC-γ1 (D1165H) (0.3 nM) on XY-69 in PE:PIP2 (80:20) liposomes with a two-fold molar excess of pFGFR1K, against PLC-γ1 (D1165H) alone: ~2 fold
[4]
  binding result: binds
[5]
  binding result: binds
